Laboratory results taken from patent US20240024520A1 (UCB, published 2024).

Target: T1, human complement component C5 (human, UniProt P01031 19-673; P01031 678-1676)
T1 construct: mature; Mature C5 is a disulphide-linked beta and alpha chain cut from one precursor; Terbium-labelled in the FRET assays, biotinylated in part of the phage ELISA; also called human C5; C5-Tb
Experiment: SPR multi-cycle kinetics, human C5 immobilised, mean of n=3

T1 sequence (P01031 19-673 limits assumed, chain 1 of 2): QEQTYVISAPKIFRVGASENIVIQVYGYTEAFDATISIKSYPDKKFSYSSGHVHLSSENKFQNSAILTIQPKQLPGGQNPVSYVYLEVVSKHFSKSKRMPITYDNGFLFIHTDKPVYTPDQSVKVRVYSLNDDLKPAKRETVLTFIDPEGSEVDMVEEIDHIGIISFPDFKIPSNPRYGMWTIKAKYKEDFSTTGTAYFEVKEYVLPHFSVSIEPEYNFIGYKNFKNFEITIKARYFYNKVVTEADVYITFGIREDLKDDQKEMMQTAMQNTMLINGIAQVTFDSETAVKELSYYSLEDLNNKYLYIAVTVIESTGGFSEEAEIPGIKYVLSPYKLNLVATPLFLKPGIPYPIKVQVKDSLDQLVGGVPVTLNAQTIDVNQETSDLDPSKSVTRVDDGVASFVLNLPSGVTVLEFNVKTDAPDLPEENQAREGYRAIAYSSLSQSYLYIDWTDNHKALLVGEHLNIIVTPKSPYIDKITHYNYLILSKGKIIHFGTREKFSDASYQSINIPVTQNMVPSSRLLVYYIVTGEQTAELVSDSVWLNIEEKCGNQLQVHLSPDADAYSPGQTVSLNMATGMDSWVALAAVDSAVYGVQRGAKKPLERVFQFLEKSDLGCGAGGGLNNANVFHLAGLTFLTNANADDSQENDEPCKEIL
T1 sequence (P01031 678-1676 limits assumed, chain 2 of 2): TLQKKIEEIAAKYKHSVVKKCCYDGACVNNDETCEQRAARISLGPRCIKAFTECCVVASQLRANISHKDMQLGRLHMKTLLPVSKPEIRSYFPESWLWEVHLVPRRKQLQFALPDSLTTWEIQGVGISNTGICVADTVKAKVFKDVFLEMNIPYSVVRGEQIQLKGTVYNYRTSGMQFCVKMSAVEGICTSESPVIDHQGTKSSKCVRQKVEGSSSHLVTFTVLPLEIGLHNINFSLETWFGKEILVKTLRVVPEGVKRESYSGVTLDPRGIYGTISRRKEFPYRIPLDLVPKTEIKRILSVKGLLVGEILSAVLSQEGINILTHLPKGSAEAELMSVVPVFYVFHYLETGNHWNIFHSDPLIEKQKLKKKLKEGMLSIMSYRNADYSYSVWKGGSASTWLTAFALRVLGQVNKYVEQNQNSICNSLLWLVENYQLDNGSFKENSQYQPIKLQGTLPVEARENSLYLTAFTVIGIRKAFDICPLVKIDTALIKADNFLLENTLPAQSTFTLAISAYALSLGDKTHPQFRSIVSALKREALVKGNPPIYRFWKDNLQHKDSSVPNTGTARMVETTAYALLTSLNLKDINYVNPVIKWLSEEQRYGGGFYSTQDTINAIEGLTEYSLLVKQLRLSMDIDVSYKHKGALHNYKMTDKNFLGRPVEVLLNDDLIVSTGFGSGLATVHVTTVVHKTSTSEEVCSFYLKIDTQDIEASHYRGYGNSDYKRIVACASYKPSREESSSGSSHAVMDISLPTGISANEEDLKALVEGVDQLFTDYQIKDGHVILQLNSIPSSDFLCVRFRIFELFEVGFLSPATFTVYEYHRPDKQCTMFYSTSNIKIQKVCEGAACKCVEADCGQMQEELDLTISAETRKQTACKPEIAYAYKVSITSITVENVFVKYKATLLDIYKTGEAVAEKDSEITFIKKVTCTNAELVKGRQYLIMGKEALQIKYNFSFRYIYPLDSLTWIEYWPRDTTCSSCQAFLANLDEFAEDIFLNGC

Row | Binder | Kd [nM] | koff [s⁻¹] | kon [M⁻¹ s⁻¹]
1 | TCPEGWSECGVAIYGYECGRWGCGHALNSGPNISPYVST [K92chemFE F26A] | 18.8 | 0.00328 | 184000
2 | TCPEGWSECGVAIYGYECGRHGCGHFLNSGPNISPYVST [K92chemFE W21H] | 1.48 | 0.000612 | 425000
3 | TCPEGWSECGVAIYGYECGRAGCGHFLNSGPNISPYVST [K92chemFE W21A] | 497 | 0.00848 | 17400
4 | TCPEGASECGVAIYGYECGRWGCGHFLNSGPNISPYVST [K92chemFE W6A] | 219 | 0.00157 | 7980
5 | TCPEGWSECGVAIAGYECGRWGCGHFLNSGPNISPYVST [K92chemFE Y14A] | 3.62 | 0.0001 | 27200
6 | TCPEGWSECGVAIYGAECGRWGCGHFLNSGPNISPYVST [K92chemFE Y16A] | 221 | 0.786 | 
